Experiment [1] addresses recombinant human HVEM (human) (UniProt Q92956). Put plainly: BLI (Octet-Red96), tagged rhHVEM immobilised on biosensor. (In general: BLI is a label-free optical method that tracks binding on a fibre tip over time.)
The target of experiment [2] is recombinant human LTβR (human) (UniProt P36941). The experiment can be described thus: BLI (Octet-Red96), tagged rhLTβR immobilised on biosensor.
Experiment [3] addresses human 4-1BB-His (human) (UniProt Q07011). Put plainly: MSD 'Human 41BB-Binding Assay': coat h41BB-His (R&D), detect anti-41BBL (R&D), anti-Goat Sulfo; positive control.
For the next experiment, the target named is mouse CD47-Fc (mouse) (UniProt Q61735). Put plainly: MSD dual-binding sandwich: coat mCD47-Fc (Acro); detect m41BB-His (Acro); anti-His Biotin + Streptavidin Sulfo; labelled Negative Control.
Chain of mouse CD47-Fc (mouse) (Q61735 19-140 limits assumed): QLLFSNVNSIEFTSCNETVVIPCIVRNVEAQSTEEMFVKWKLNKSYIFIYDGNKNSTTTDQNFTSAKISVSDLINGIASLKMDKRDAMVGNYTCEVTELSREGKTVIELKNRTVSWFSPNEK
Experiment [4] concerns the target recombinant human PVR (human) (UniProt P15151). Put plainly: BLI (Octet-Red96), tagged rhPVR immobilised on biosensor.
The target in experiment [5] is recombinant human LTβR-Fc (human) (UniProt P36941). The experiment can be described thus: MSD sandwich: capture LTβR-Fc; detection PVR-Biotin.
Chain of recombinant human LTβR-Fc (human) (P36941 31-227 limits assumed): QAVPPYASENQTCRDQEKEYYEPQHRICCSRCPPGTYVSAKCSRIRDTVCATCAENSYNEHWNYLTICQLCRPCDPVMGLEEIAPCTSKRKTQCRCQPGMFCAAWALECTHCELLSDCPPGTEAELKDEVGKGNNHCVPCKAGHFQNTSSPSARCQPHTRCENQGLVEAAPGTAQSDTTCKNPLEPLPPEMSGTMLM
The target of experiment [6] is recombinant human HVEM-Fc (human) (UniProt Q92956). Put plainly: MSD sandwich: capture HVEM-Fc; detection PVR-Biotin.
Chain of recombinant human HVEM-Fc (human) (Q92956 39-202 limits assumed): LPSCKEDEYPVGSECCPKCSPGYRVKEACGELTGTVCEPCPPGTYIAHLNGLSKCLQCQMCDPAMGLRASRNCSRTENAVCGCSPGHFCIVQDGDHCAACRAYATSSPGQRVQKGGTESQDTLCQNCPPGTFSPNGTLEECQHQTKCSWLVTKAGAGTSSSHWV
Experiment [7] has as its target human 4-1BB-His (human) (UniProt Q07011). Put plainly: MSD 'Human 41BB-Binding Assay': coat h41BB-His (R&D), detect anti-41BBL (R&D), anti-Goat Sulfo; negative control, fit value for a curve that stays near the baseline.
The next experiment concerns the target mouse 4-1BB-His (mouse) (UniProt P20334). Put plainly: MSD: coat m41BB-His (Acro); detection anti-mouse Sulfo (MSD); labelled Negative Control, flat curve.
For a further experiment, the target named is mouse CD47-His (mouse) (UniProt Q61735). Put plainly: MSD: coat mCD47-His (Acro); detection anti-mouse Sulfo (MSD); labelled Positive Control.
Chain of mouse CD47-His (mouse) (Q61735 19-140 limits assumed): as the sequence (Q61735 19-140 limits assumed) above

Chain of recombinant human LTβR (human) (P36941 31-227 limits assumed): as the sequence (P36941 31-227 limits assumed) above
Chain of recombinant human PVR (human) (P15151 21-343 limits assumed): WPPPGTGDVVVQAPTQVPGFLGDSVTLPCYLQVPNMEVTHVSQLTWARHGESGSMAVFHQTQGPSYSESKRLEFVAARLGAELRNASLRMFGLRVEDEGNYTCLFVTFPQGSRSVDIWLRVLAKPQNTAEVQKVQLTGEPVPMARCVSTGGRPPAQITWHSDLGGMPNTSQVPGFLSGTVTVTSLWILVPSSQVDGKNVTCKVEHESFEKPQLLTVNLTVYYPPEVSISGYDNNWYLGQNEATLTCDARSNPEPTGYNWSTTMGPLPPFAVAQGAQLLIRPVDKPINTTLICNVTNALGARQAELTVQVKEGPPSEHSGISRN
Chain of recombinant human HVEM (human) (Q92956 39-202 limits assumed): as the sequence (Q92956 39-202 limits assumed) above
Chain of human 4-1BB-His (human) (Q07011 24-186 limits assumed): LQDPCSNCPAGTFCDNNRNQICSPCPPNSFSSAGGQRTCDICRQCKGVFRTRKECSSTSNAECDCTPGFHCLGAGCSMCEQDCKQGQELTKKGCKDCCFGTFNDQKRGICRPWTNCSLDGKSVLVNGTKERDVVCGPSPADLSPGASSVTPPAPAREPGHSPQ
Chain of mouse 4-1BB-His (mouse) (P20334 24-187 limits assumed): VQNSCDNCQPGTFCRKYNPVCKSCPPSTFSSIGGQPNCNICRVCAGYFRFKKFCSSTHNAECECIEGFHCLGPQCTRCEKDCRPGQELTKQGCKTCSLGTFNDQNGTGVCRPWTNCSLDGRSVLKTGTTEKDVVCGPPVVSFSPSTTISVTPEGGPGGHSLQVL

For the substance “Fc-LIGHT single-sided fusion protein control (Fc fusion)”, in [1], the dissociation constant (Kd) amounted to 2.12 nM, the koff came out at 0.000876 s⁻¹ and the kon came to 410000 M⁻¹ s⁻¹. In experiment [2], the Kd is 28.4 nM, the koff stood at 0.00754 s⁻¹ and the kon was 266000 M⁻¹ s⁻¹.
“PD-1-Fc-4-1BBL chimeric protein (as used in Example 14) (Fc fusion)” showed an EC50 with human 4-1BB-His (human) [3] of 0.63 nM.
In the case of “PD-1-Fc-4-1BBL chimeric protein (as used in Example 15) (Fc fusion)”, the EC50 with mouse CD47-Fc (mouse) was 45 µM.
Regarding “TIGIT-Fc single-sided fusion protein control (Fc fusion)”, in [4], the Kd was 5.24 nM, the koff is 0.00154 s⁻¹ and the kon was determined as 296000 M⁻¹ s⁻¹.
Turning to “TIGIT-Fc(IgG1)-LIGHT chimeric protein (Fc fusion)”, the EC50 (read off the curve) is 3 nM in experiment [5] and 5 nM in [6].
Regarding “hSIRPα-Fc-CD40L chimeric protein (Fc fusion)”, in the experiment with human 4-1BB-His (human) [7], the EC50 worked out at 143 nM.
As for “mSIRPα-Fc-CD40L chimeric protein (Fc fusion)”, the EC50 in the experiment with mouse 4-1BB-His (mouse) was 5.35 µM; with mouse CD47-His (mouse) it was 0.369 nM.

As a reminder, the Kd is a measure of binding affinity in units of concentration. A word on the koff: it is a measure of how fast the partners let go of each other. In general, kon refers to the rate constant with which the complex forms. By EC50 is commonly meant the midpoint of the concentration-response curve. One may read the EC50 (read off the curve) as the midpoint of the concentration-response curve.

The values are drawn from patent publication US20240016892A1.
